From paper PMC10058238, “Mechanism of sphingolipid homeostasis revealed by structural analysis of Arabidopsis SPT-ORM1 complex” (Science Advances, 2023)
Substitutions are numbered along the chain they refer to. Numbers in names are those of the source.

T1: Arabidopsis SPT complex (LCB1, LCB2a, SPTssa) (Arabidopsis, UniProt Q94IB8 1-482; Q9LSZ9 1-489; A8MSB8 1-56)
T1 sequence 1: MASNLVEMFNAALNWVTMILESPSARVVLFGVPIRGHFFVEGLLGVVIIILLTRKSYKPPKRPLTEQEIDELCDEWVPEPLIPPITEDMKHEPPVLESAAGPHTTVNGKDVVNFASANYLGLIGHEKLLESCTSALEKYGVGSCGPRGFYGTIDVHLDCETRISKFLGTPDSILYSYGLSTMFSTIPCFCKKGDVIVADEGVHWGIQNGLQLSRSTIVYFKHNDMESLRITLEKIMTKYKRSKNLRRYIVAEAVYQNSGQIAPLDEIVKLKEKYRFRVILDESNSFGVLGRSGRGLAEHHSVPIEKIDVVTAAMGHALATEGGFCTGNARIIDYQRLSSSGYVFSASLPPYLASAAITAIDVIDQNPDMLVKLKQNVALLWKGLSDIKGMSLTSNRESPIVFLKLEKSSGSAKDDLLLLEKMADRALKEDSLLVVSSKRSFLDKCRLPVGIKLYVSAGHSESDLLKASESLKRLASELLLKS
T1 sequence 2: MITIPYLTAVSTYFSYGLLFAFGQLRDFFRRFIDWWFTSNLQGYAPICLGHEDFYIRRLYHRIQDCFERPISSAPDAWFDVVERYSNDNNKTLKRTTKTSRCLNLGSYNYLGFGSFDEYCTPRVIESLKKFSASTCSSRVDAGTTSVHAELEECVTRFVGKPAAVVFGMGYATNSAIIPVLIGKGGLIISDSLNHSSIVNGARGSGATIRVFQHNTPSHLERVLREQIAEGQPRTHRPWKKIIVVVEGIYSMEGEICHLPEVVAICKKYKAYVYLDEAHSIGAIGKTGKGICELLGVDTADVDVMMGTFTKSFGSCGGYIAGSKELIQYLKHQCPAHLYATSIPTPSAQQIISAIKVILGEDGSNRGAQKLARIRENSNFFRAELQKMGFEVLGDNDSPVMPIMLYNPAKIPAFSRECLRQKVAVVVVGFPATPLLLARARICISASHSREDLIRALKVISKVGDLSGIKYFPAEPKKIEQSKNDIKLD
T1 sequence 3: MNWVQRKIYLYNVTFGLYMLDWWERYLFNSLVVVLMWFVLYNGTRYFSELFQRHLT

T2: Flag-tagged Arabidopsis SPTssa (Arabidopsis, UniProt A8MSB8 1-56)
T2 construct: SPTssa, small subunit of serine palmitoyltransferase, Arabidopsis; codon-optimized cDNA in pCAG; residues 1 to 48 are in the atomic model; The only tagged subunit; bait of every purification; also called Flag-SPTssa; Flag-AtSPTssa; source: HEK293F, transiently cotransfected with the other subunits, purified as a complex (anti-Flag resin, Superose 6) in GDN; not shown: Flag, N-terminal, kept
T2 sequence: T1 sequence 3

T3: Arabidopsis LCB2a-ΔN5 (Arabidopsis, UniProt Q9LSZ9 1-489, LCB2a-ΔN5 (deletion of residues 2 to 5))
T3 construct: LCB2a, Arabidopsis, with residues 2 to 5 deleted; also called LCB2a-ΔN5 variant
T3 sequence: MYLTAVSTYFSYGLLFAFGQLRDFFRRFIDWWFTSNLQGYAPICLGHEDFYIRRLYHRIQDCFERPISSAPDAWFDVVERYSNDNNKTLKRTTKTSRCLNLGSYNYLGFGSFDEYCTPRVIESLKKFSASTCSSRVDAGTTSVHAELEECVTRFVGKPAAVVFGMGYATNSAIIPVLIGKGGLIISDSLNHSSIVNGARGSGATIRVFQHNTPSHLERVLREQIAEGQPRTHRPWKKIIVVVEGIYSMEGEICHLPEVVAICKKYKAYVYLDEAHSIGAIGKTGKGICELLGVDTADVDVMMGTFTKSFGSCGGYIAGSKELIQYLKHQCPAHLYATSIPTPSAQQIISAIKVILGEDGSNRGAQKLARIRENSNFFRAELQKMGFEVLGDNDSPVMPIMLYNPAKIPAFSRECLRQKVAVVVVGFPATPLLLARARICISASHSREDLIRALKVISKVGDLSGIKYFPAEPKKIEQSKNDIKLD

B1: Arabidopsis ORM1 (natural protein)
chain: MANLYVKAVPPPDMNRNTEWFMYPGVWTTYMLILFFGWLVVLSVSGCSPGMAWTVVNLAHFVVTYHSFHWMKGTPFADDQGIYNGLTWWEQMDNGQQLTRNRKFLTLVPVVLYLIASHTTDYRHPWLFLNTLAVMVLVVAKFPNMHKVRIFGINGDK
notes: ORM1, Arabidopsis; codon-optimized cDNA in pCAG without a tag; residues 1 to 156 are in the atomic model; also called AtORM1; WT ORM1
B2: Arabidopsis ORM1-N17A (natural protein)
chain: B1 chain with N17A
notes: ORM1, Arabidopsis, with N17A; residues 1 to 11 almost invisible in the map; also called ORM1-N17A variant
B3: Arabidopsis SPT-ORM1 complex (LCB1, LCB2a, SPTssa, ORM1) (complex)
chain 1: T1 sequence 1
chain 2: T1 sequence 2
chain 3: T1 sequence 3
chain 4: B1 chain
modifications: pyridoxal 5'-phosphate covalently linked to the ε-amino group of Lys311 (internal aldimine)
notes: LCB1, Arabidopsis; as m1; LCB2a, Arabidopsis; as m2; SPTssa, Arabidopsis; as m3; ORM1, Arabidopsis; as m4; One protomer (1:1:1:1) of the dimer seen by cryo-EM; an endogenous ceramide copurifies between ORM1 and LCB2a; also called AtSPT-ORM1; WT SPT-ORM1 complex; source: HEK293F, transiently cotransfected (LCB1:LCB2a:ORM1:SPTssa = 3:3:3:1), purified (anti-Flag resin, Superose 6) in GDN; not shown: …
B4: Arabidopsis LCB1 (natural protein, UniProt Q94IB8 1-482, looked up)
chain: T1 sequence 1
notes: LCB1, subunit of serine palmitoyltransferase, Arabidopsis; codon-optimized cDNA in pCAG without a tag; residues 36 to 480 are in the atomic model; also called AtLCB1; source: HEK293F, transiently cotransfected with the other subunits, purified as a complex (anti-Flag resin, Superose 6) in GDN
B5: Arabidopsis LCB2a (natural protein)
chain: T1 sequence 2
modifications: pyridoxal 5'-phosphate covalently linked to the ε-amino group of Lys311 (internal aldimine)
notes: LCB2a, subunit of serine palmitoyltransferase, Arabidopsis; codon-optimized cDNA in pCAG without a tag; residues 1 to 36 and 41 to 475 are in the atomic model; The sentence on the PLP link prints 'LCB2b'; the construct is LCB2a; also called AtLCB2a; source: HEK293F, transiently cotransfected with the other subunits, purified as a complex (anti-Flag resin, Superose 6) in GDN

Experiments:
[1] = target: T1, Arabidopsis SPT complex (LCB1, LCB2a, …); test: cell-based or functional assay
Arabidopsis LCB2a = target: B5; test: cryo-EM structure; single-particle cryo-EM of the coexpressed, purified complexes (WT, ORM1-N17A, LCB2a-ΔN5) at ~18 mg/ml in 25 mM Hepes pH 7.5, 150 mM NaCl, 0.01% GDN; the LCB2a-ΔN5 sample preincubated with 0.5 mM PLP, 10 mM L-serine and 1 mM S-CoA; details: both partners purified
[2] = target: T2, Flag-tagged Arabidopsis SPTssa; test: as above; details: both partners purified
Arabidopsis LCB2a-ΔN5 = target: T3, Arabidopsis LCB2a-ΔN5; test: as above; details: both partners purified
[3] = target: the molecule itself; test: as above

B1
specific SPT activity of the purified SPT-ORM1 complex at saturating conditions, relative to the SPT complex [1]: ~50%
binding result (Arabidopsis LCB2a): binds
stoichiometry N [2]: 1
binding result (Arabidopsis LCB2a-ΔN5): binds

B2
binding result (Arabidopsis LCB2a): binds

B3
stoichiometry N [3]: 2

B4
stoichiometry N [2]: 1

B5
stoichiometry N [2]: 1
